# According to patent publication US20240325562A1 (LINXIS B V, published 2024):
# How the values were obtained:
# [1] = molecular target: T1, full-length human PDGFRB on cells (human, UniProt P09619 33-1106); experiment: binding assay on cells transgenically expressing human PDGFRB, FIG. 15C
# T1 construct: whole, on cells; also called hPDGFRB; SCC-hPDGFRB
# [2] = molecular target: T2, rat IGF2R on cells (rat, UniProt A0A8I6GLL6 43-2479); experiment: cell-based or functional assay
# [3] = molecular target: T3, human IGF2R on cells (human, UniProt P11717 41-2491); experiment: cell-based or functional assay
# [4] = molecular target: T2, rat IGF2R on cells; experiment: binding assay on SCC cells transgenically expressing rat IGF2R
# Experimental: (§1) To examine whether 13F11-13E8 is cross-reactive against rodent IGF2R, the construct as well as its corresponding monomeric VHHs were conjugated to IRDye800CW (F11E8-IRD800, conjugation method as described in example 10.2) and the binding affinity was determined using a binding assay on SCC cells that transgenically expressed either murine IGF2R (mIGF2R), rIGF2R, or hIGF2R (FIGS. 12A-D).
# [5] = molecular target: T3, human IGF2R on cells; experiment: binding assay on SCC cells transgenically expressing human IGF2R
# Experimental: as §1
# [6] = molecular target: T4, murine IGF2R on cells (murine, UniProt Q07113 36-2483); experiment: binding assay on SCC cells transgenically expressing murine IGF2R
# T4 construct: whole, on cells; also called mIGF2R
# T4 sequence (Q07113 36-2483): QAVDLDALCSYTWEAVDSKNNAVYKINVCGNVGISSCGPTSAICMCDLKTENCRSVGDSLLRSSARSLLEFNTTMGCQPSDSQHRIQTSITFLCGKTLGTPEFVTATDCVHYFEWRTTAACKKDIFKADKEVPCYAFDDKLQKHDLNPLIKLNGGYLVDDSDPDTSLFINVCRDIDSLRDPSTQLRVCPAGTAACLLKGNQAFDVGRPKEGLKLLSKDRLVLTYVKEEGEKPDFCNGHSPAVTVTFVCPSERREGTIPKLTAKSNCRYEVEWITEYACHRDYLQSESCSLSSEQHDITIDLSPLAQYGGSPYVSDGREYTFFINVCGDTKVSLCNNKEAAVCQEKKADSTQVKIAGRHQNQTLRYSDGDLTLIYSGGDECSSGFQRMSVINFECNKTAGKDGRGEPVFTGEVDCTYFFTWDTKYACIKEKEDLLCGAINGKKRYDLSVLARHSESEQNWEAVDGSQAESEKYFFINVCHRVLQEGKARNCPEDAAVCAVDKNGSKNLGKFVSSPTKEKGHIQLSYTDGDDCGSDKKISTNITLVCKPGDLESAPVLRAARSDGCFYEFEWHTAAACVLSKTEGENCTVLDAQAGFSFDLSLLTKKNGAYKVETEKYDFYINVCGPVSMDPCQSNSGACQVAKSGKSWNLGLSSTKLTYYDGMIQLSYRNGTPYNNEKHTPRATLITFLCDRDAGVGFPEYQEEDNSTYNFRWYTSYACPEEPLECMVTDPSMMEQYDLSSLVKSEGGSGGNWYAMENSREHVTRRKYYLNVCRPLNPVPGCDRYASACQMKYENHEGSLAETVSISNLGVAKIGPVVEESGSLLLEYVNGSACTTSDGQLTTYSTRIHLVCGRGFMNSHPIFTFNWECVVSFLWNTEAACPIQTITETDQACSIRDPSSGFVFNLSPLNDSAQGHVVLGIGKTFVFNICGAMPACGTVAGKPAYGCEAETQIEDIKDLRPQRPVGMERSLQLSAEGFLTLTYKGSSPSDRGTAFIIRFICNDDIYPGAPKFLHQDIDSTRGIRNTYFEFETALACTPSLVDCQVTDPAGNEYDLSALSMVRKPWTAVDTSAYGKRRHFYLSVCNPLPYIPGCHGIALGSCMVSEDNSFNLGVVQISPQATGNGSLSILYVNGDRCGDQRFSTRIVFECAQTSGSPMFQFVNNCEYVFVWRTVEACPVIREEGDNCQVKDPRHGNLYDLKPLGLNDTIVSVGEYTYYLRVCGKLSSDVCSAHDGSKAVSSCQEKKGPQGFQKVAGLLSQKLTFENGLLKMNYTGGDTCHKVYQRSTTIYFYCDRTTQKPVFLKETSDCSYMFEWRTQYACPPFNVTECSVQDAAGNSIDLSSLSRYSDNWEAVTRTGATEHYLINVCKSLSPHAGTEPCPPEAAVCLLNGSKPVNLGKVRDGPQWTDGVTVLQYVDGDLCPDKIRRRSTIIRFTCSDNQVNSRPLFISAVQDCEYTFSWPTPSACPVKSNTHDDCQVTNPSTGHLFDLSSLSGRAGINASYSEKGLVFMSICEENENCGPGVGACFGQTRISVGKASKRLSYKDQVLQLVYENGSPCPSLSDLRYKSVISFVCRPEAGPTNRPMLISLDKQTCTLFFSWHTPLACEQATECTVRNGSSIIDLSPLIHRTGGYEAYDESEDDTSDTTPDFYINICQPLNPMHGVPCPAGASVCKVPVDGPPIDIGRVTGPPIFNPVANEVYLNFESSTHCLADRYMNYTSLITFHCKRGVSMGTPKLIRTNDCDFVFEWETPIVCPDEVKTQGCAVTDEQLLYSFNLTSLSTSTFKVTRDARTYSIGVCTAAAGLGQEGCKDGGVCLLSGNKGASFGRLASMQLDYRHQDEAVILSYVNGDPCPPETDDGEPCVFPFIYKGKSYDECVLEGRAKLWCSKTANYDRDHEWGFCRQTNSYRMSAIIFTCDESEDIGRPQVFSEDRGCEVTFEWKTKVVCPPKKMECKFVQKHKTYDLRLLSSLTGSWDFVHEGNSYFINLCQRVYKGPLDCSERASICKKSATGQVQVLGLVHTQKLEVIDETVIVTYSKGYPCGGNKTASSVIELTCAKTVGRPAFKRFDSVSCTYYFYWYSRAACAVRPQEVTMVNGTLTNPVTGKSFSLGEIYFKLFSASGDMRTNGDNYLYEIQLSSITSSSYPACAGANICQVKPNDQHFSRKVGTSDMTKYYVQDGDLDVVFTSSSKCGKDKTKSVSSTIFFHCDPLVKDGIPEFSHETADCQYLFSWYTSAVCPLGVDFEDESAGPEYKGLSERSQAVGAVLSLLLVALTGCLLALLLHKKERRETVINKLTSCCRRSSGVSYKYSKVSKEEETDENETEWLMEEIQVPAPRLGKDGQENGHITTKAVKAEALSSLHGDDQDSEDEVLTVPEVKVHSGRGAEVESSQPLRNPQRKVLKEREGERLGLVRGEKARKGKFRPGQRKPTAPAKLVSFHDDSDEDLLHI
# Experimental: as §1
# [7] = molecular target: T5, recombinant hPDGFRB ectodomain (human, UniProt P09619 33-532); experiment: competition ELISA on human PDGFRB ECD, IRDye800-SP26P as reporter and unconjugated SP26P as competitor
# T5 construct: extracellular domain; also called hPDGFRB-ECD; human PDGFRB ECD
# [8] = molecular target: T6, recombinant human extracellular domain of IGF2R (human, UniProt P11717 41-2304); experiment: competition assay on immobilized hIGF2R-ECD, competitor for 13F11-A647
# T6 construct: extracellular domain; Recombinant, immobilized on plates; also called hIGF2R-ECD; human IGF2R ectodomain (ECD)
# Experimental: Biparatopic VHH constructs contain two VHH which bind to a different epitope, i.e. which are non-competitive binders. To identify (a) pair(s) of non-competitive binders, competition assays were performed. In the example shown, an Alexa fluor-conjugate of the high affine VHH 13F11 was used as the reporter VHH (13F11-A647, see example 10.2). In the assay, a non-saturating amount (10 nM) of 13F11-A647 was incubated with immobilized hIGF2R-ECD in the presence or absence of 250 nM unconjugated competitor VHH to allow competition to take place.
# [9] = molecular target: T6, recombinant human extracellular domain …; experiment: direct binding assay of the fluorescent conjugate on immobilized hIGF2R-ECD, one-site specific binding fit
# Experimental: These conjugates were then subjected to direct binding assays on immobilized hIGF2R-ECD, meaning that plates were read out immediately after washing, without additional detection steps. […] For detailed analysis, binding parameters KD and Bₘₐₓ were calculated in Graphpad (version 8.3), using one-site specific binding analysis (FIG. 8D).
# [10] = molecular target: T6, recombinant human extracellular domain …; experiment: binding assay on immobilized hIGF2R-ECD, detection with anti-VHH antibody
# Experimental: The 15 unique hIGF2R-binding VHH (Example 2.1, FIG. 2) were produced and purified as described in examples 3 and 4. The apparent affinities were determined through binding assay on immobilized hIGF2R-ECD. Briefly, three-fold serial dilution series, starting from 1 μM, of each VHH were plated onto hIGF2R-ECD coated plates. VHH were allowed to bind for two hours after which plates were washed. Then, bound VHH was detected using a VHH-specific IgG antibody, followed by an IRD800CW-conjugated IgG-specific antibody. Plates were read out by fluorimetry.
# [11] = molecular target: T7, rat serum albumin (rat, UniProt P02770 25-608); experiment: binding assay of the IRDye800 conjugate on serum albumin
# T7 construct: also called RSA
# T7 sequence (P02770 25-608 limits assumed): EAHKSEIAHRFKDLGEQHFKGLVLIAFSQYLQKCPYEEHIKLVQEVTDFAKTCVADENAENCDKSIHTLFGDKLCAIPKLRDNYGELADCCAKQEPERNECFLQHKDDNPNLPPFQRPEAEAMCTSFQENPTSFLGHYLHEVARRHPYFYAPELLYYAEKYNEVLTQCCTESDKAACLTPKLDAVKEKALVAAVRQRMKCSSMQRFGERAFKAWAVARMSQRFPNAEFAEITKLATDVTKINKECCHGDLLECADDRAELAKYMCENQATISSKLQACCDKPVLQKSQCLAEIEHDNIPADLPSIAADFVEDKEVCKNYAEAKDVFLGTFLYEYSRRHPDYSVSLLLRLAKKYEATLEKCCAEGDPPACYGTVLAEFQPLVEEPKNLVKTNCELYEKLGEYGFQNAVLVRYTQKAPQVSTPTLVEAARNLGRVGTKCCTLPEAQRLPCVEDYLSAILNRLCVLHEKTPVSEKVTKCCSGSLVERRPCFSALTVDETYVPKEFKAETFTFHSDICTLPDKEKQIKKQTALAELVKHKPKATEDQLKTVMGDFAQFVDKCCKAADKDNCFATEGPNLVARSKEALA
# [12] = molecular target: T8, mouse serum albumin (mouse, UniProt P07724 25-608); experiment: as above
# T8 construct: also called MSA
# T8 sequence (P07724 25-608 limits assumed): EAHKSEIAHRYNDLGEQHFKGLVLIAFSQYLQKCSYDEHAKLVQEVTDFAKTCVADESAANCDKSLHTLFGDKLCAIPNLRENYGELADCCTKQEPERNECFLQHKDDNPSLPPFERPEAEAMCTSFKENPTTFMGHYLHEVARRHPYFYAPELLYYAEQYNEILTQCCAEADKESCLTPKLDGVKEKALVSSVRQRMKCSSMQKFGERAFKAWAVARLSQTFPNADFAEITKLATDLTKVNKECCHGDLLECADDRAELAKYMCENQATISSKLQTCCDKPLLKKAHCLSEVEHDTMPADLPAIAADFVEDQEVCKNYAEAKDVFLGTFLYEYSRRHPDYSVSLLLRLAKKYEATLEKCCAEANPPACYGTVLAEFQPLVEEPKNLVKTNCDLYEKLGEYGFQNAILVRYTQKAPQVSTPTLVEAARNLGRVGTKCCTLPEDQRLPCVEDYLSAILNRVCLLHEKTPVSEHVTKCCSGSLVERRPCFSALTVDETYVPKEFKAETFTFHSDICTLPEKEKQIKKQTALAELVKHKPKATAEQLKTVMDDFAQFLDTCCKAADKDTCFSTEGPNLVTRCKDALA
# [13] = molecular target: T9, human serum albumin (human, UniProt P02768 25-609); experiment: as above
# T9 construct: also called HSA
# T1 sequence (P09619 33-1106): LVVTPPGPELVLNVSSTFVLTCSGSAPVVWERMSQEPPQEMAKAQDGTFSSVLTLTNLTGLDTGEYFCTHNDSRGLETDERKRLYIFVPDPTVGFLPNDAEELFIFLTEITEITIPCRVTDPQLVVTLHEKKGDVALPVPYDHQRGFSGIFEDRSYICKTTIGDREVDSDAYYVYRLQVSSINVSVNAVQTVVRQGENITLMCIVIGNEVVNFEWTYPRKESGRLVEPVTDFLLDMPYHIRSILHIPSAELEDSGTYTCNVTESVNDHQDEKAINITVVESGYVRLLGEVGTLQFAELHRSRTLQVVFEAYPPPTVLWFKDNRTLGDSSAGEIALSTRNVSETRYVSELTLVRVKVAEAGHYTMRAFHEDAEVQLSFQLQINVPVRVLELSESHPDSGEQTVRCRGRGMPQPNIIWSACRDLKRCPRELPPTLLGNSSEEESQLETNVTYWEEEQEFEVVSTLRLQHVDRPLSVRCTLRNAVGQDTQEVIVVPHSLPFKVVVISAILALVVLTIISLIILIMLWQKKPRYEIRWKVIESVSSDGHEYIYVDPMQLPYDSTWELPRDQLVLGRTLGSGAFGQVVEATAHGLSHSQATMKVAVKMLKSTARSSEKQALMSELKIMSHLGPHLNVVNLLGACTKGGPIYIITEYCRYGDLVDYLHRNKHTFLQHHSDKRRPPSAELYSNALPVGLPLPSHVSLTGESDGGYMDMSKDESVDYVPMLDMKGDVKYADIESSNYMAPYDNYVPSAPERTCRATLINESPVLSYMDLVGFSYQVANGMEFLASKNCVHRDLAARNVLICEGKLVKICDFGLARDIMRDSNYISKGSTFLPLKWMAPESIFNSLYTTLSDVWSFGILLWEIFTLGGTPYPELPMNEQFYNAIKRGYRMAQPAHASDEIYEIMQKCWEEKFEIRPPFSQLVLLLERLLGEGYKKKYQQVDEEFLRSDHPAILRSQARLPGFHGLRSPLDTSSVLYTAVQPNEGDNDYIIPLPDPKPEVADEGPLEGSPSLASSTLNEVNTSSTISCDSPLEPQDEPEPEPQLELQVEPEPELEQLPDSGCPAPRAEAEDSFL
binder,measurement,setting,value
"SP02P-SP26P (bispecific antibody, not shown: small tags and cut ends, also called SP02-SP26P) EVQLVESGGGLVQAGGSLRLSCAASESISSIEQMGWFRQAPGKQRALVAINTYGGRTVYTNSVEGRFTMSRDSAKNMVYLQMTSLEPEDTAVYYCYAQTTAWRGGVWGQGTQVTVSSGGGGSGGGGSGGGGSEVQLVESGGGLVQAGGSLRLSCAASGRSFSSSVMGWFRQTPGKEREFVAATRWTAASTHYADSVKGRFTISRDHAENAVFLQMNSLKPEDTAVYYCAAGNYLDTAQYRYNYWGQGTQVTVSS",Kd,[1],< 5 nM
"13E8-13F11-IRD800 (bispecific antibody, not shown: small tags and cut ends, IRDye 800CW coupled by maleimide to the C-terminal free cysteine, which is not in the letters) EVQLVESGGGLVQAGGSLRLSCAASRSISPMGWYRQAPGKQRELVAIMPSSGPPIYADSVQGRFTISRDNAKNTVYLQMNSLKPEDTAVYYCNVGGGYWGQGTQVTVSSGGGGSGGGGSGGGGSEVQLVESGGRLVQPGDSLRLSCAASGRTFSDNAMGWFRQAPGKERRFVAGISWAGGSTYYSDSVKGRFTISRDNAKNTVYLQMNSLKPEDTAVYYCAAGLRAWVQRMPKDYNYWGQGTQVTVSS","endocytic rate constant, ke",[2],~0.7 min⁻¹
same,"endocytic rate constant, ke",[3],~1.5 min⁻¹
"13F11-13E8-IRD800 (bispecific antibody, IRDye 800CW coupled by maleimide to the C-terminal free cysteine, which is not in the letters, Biparatopic tandem VHH; also called F11E8-IRD800; IRDye800-conjugated 13F11-13E8 (F11E8); not shown: C-terminal tail: free Cys, possible thrombin site and His6 tag) EVQLVESGGRLVQPGDSLRLSCAASGRTFSDNAMGWFRQAPGKERRFVAGISWAGGSTYYSDSVKGRFTISRDNAKNTVYLQMNSLKPEDTAVYYCAAGLRAWVQRMPKDYNYWGQGTQVTVSSGGGGSGGGGSGGGGSEVQLVESGGGLVQAGGSLRLSCAASRSISPMGWYRQAPGKQRELVAIMPSSGPPIYADSVQGRFTISRDNAKNTVYLQMNSLKPEDTAVYYCNVGGGYWGQGTQVTVSS",Kd,[4],< 10 nM
same,Kd,[5],< 10 nM
same,"endocytic rate constant, ke",[2],~0.7 min⁻¹
same,"endocytic rate constant, ke",[3],~1.5 min⁻¹
same,Kd,[6],< 10 nM
"SP26P (VHH, In the competition assay the reporter copy carried IRDye800 on the C-terminal cysteine, which is not in the letters., From libraries 3 and 4 (raised against rPDGFRB)) VHH: EVQLVESGGGLVQAGGSLRLSCAASGRSFSSSVMGWFRQTPGKEREFVAATRWTAASTHYADSVKGRFTISRDHAENAVFLQMNSLKPEDTAVYYCAAGNYLDTAQYRYNYWGQGTQVTVSS",binding result,[7],binds
"13G10 (VHH, On phage in the phage ELISA; purified from E. coli in the other assays) VHH: EVQLVESGGGLVQAGGSLRLSCAASGLTFSSYTMAWYRQAPGKEREVVAAISSGDSIYHEDSVQGRFIISRDNAKNTVYLQMNSLKAEDTAVYYCRANGPGTYWGQGTQVTVSS",binding result,[8],binds
"13C11 (VHH, On phage in the phage ELISA; purified from E. coli in the other assays) VHH: EVQLVESGGGLVQAGGSLRLSCAASGLTFSSYTMAWYRQAPGKEREVVAAISSGDSIYHEGSVQGRFIISRDNAKNTVYLQMNSLKAEDTAVYYCRANGPGTYWGQGTQVTVSS",binding result,[8],binds
"13F11-A647 (VHH, Alexa Fluor 647 is coupled by maleimide chemistry to the C-terminal free cysteine of the expression tail. The dye, that cysteine and the tag are not in the letters., Fluorescent conjugate of monomeric 13F11; also called labelled 13F11) VHH: EVQLVESGGRLVQPGDSLRLSCAASGRTFSDNAMGWFRQAPGKERRFVAGISWAGGSTYYSDSVKGRFTISRDNAKNTVYLQMNSLKPEDTAVYYCAAGLRAWVQRMPKDYNYWGQGTQVTVSS",Kd,[9],1 nM
"13F11 (VHH, On phage in the phage ELISA; purified from E. coli in the other assays; also called native 13F11; unconjugated 13F11) VHH: EVQLVESGGRLVQPGDSLRLSCAASGRTFSDNAMGWFRQAPGKERRFVAGISWAGGSTYYSDSVKGRFTISRDNAKNTVYLQMNSLKPEDTAVYYCAAGLRAWVQRMPKDYNYWGQGTQVTVSS",Kd,[10],0.23 nM
13F11-13E8-ABD-IRD800 (other) EVQLVESGGRLVQPGDSLRLSCAASGRTFSDNAMGWFRQAPGKERRFVAGISWAGGSTYYSDSVKGRFTISRDNAKNTVYLQMNSLKPEDTAVYYCAAGLRAWVQRMPKDYNYWGQGTQVTVSSGGGGSGGGGSGGGGSEVQLVESGGGLVQAGGSLRLSCAASRSISPMGWYRQAPGKQRELVAIMPSSGPPIYADSVQGRFTISRDNAKNTVYLQMNSLKPEDTAVYYCNVGGGYWGQGTQVTVSSLAEAKVLANRELDKYGVSDYYKNLINNAKTVEGVKALIDEILAALP,Kd,[11],30 nM
same,Kd,[12],~200 nM
same,Kd,[13],~200 nM
